{"source": "paper doi:10.1101/2020.10.16.20213991", "about": "(medRxiv, 2020)", "proteins": {"B1": {"name": "cowpea chlorotic mottle virus (CCMV) coat protein (natural protein)", "chain": "MSTVGTGKLTRAQRRAAARKNKRNTRVVQPVIVEPIASGQGKAIKAWTGYSVSKWTASCAAAEAKVTSAITISLPNELSSERNKQLKVGRVLLWLGLLPSVSGTVKSCVTETQTTAAASFQVALAVADNSKDVVAAMYPEAFKGITLEQLTADLTIYLYSSAALTEGDVIVHLEVEHVRPTFDDSFTPVY"}}, "molecular_target": "the molecule itself", "test": "SEC"}
{"protein": "B1", "values": [{"measurement": "binding result", "value": "binds"}]}
